Our source for the Kd values is paper PMC2853112.

Data set [1] concerns the target T1, MjNep1 (Methanocaldococcus jannaschii, UniProt Q57977 1-205). In words: NMR 15N-HSQC titration.
Data set [2] concerns the target T1, MjNep1. In words: fluorescence quenching.

For orientation: Kd means the constant that tells how readily two partners part at equilibrium. A low value points to higher affinity.

T1 sequence (Q57977 whole entry): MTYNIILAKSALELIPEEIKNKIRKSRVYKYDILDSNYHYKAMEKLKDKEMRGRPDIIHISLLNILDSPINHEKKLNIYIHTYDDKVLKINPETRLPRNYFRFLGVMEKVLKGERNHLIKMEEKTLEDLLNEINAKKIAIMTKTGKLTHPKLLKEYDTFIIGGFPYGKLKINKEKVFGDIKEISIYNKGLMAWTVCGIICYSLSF

B1: RNA 1 (ssRNA)
RNA: UUCAAC
On to B1, for which the Kd in the data set with MjNep1 [1] is above 1000 nM.

B2: RNA 8 (ssRNA)
RNA: GAUUCAACGCC
modifications: pseudouridine at position 4 (nt 914)
For the molecule B2, in the data set with MjNep1 [2], the Kd was 11 ± 4 nM.

B3: RNA 5 (ssRNA)
RNA: UUCAACGCC
Consider B3, for which the Kd in the data set with MjNep1 [2] was found to be 8 ± 5 nM.

B4: RNA 12 (ssRNA)
RNA: UCAACGCC
modifications: pseudouridine at position 1 (nt 914)
Molecule B4 registered a dissociation constant Kd with MjNep1 [2] of 7 ± 2 nM.

B5: RNA 4 (ssRNA)
RNA: UUCAACGC
In the case of B5, the Kd with MjNep1 [2] was found to be 77 ± 27 nM.

B6: RNA 7 (complete hairpin loop 35) (ssRNA)
RNA: UUGGAUUCAACGCCGG
B6: binding with MjNep1 [2] was put at a Kd of 3 ± 1 nM.

B7: RNA 3 (ssRNA)
RNA: GGAUUCAAC
B7 had a Kd in the data set with MjNep1 [2] of 1650 ± 380 nM. Compared with the last molecule, the Kd is about 550-fold higher.

B8: RNA 6 (ssRNA)
RNA: GGAUUCAACGCC
In the data set with MjNep1 [2], B8 returned a Kd of 7 ± 2 nM.

B9: RNA 9 (ssRNA)
RNA: GAUUCAACGCC
modifications: pseudouridine at position 3 (nt 913)
For the molecule B9, binding in the data set with MjNep1 [2] was characterised by a dissociation constant (Kd) of 2 ± 1 nM. Against the preceding molecule, the Kd is about 3.5-fold lower.
